These are literature values, as cited in publication PMC7109175.

For this data set, the target named is cMyBP-C (Mus musculus) (UniProt O70468).
UniProt O70468, sequence (O70468 whole entry): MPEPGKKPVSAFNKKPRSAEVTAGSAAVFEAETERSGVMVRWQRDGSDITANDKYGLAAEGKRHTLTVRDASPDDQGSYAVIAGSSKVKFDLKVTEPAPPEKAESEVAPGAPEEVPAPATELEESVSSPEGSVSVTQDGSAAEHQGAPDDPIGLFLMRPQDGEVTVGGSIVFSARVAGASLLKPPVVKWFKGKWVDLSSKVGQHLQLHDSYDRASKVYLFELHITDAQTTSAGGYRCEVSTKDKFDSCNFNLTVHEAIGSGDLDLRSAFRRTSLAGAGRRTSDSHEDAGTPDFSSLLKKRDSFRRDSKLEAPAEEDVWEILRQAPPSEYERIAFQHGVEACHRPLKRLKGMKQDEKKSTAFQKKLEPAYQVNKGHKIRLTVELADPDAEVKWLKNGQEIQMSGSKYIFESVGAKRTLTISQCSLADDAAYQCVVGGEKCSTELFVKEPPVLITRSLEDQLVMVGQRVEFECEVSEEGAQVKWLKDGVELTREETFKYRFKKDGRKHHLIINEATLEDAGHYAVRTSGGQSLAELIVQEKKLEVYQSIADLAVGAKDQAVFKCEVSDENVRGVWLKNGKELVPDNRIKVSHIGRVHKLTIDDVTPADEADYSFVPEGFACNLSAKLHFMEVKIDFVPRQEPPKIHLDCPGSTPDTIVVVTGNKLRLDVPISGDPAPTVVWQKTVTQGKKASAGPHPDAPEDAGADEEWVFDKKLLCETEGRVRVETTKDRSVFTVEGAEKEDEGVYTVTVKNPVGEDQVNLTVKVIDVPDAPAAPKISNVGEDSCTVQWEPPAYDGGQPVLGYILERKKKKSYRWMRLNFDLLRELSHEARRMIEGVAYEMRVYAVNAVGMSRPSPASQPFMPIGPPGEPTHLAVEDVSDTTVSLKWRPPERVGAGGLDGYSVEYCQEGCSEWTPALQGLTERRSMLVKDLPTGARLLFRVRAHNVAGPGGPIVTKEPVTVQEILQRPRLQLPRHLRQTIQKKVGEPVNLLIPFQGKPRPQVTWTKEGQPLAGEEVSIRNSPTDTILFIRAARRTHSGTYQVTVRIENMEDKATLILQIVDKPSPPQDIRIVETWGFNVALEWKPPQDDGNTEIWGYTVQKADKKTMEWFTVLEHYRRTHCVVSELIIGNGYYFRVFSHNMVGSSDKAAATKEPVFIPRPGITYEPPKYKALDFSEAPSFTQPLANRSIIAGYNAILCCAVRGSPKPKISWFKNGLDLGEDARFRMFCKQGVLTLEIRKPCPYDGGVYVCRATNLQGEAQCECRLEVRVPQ

On to Fhod3 (from UniProt Q76LL6), for which the Kd is 800 nM.

A word on the Kd: it is a measure of binding affinity in units of concentration.
